Test results taken from the Human Domainome abundance scans (Beltran et al. 2025).
± gives the uncertainty stated by the source.

B1: Retinoic acid receptor beta, residues 85 to 161; numbered along this chain, P10826 (parent)
chain: YKPCFVCQDKSSGYHYGVSACEGCKGFFRRSIQKNMIYTCHRDKNCVINKVTRNRCQYCRLQKCFEVGMSKESVRND

Variants of: B1
Experiment: abundance fitness (aPCA) (normalised: wild type 0, dead -1); higher = more abundant; growth selection in yeast, the domain comes from the species named
Details: Homo sapiens

Row | Variant | abundance fitness
1 | YKPCFVCQDKQSGYHYGVSACEGCKGFFRRSIQKNMIYTCHRDKNCVINKVTRNRCQYCRLQKCFEVGMSKESVRND [S11Q] | -0.33 ± 0.091
2 | YKPCFVCQDKTSGYHYGVSACEGCKGFFRRSIQKNMIYTCHRDKNCVINKVTRNRCQYCRLQKCFEVGMSKESVRND [S11T] | -0.254 ± 0.1
3 | YKPCFVCQDKVSGYHYGVSACEGCKGFFRRSIQKNMIYTCHRDKNCVINKVTRNRCQYCRLQKCFEVGMSKESVRND [S11V] | -0.221 ± 0.05
4 | YKPCFVCQDKYSGYHYGVSACEGCKGFFRRSIQKNMIYTCHRDKNCVINKVTRNRCQYCRLQKCFEVGMSKESVRND [S11Y] | -0.407 ± 0.21
5 | YKPCFVCQDKSAGYHYGVSACEGCKGFFRRSIQKNMIYTCHRDKNCVINKVTRNRCQYCRLQKCFEVGMSKESVRND [S12A] | 0.057 ± 0.045
6 | YKPCFVCQDKSCGYHYGVSACEGCKGFFRRSIQKNMIYTCHRDKNCVINKVTRNRCQYCRLQKCFEVGMSKESVRND [S12C] | 0.168 ± 0.058
7 | YKPCFVCQDKSDGYHYGVSACEGCKGFFRRSIQKNMIYTCHRDKNCVINKVTRNRCQYCRLQKCFEVGMSKESVRND [S12D] | 0.16 ± 0.062
8 | YKPCFVCQDKSEGYHYGVSACEGCKGFFRRSIQKNMIYTCHRDKNCVINKVTRNRCQYCRLQKCFEVGMSKESVRND [S12E] | -0.041 ± 0.044
9 | YKPCFVCQDKSFGYHYGVSACEGCKGFFRRSIQKNMIYTCHRDKNCVINKVTRNRCQYCRLQKCFEVGMSKESVRND [S12F] | -0.205 ± 0.12
10 | YKPCFVCQDKSGGYHYGVSACEGCKGFFRRSIQKNMIYTCHRDKNCVINKVTRNRCQYCRLQKCFEVGMSKESVRND [S12G] | -0.242 ± 0.038
11 | YKPCFVCQDKSHGYHYGVSACEGCKGFFRRSIQKNMIYTCHRDKNCVINKVTRNRCQYCRLQKCFEVGMSKESVRND [S12H] | -0.034 ± 0.17
12 | YKPCFVCQDKSIGYHYGVSACEGCKGFFRRSIQKNMIYTCHRDKNCVINKVTRNRCQYCRLQKCFEVGMSKESVRND [S12I] | -0.096 ± 0.14
13 | YKPCFVCQDKSKGYHYGVSACEGCKGFFRRSIQKNMIYTCHRDKNCVINKVTRNRCQYCRLQKCFEVGMSKESVRND [S12K] | -0.207 ± 0.076
14 | YKPCFVCQDKSLGYHYGVSACEGCKGFFRRSIQKNMIYTCHRDKNCVINKVTRNRCQYCRLQKCFEVGMSKESVRND [S12L] | -0.216 ± 0.059
15 | YKPCFVCQDKSMGYHYGVSACEGCKGFFRRSIQKNMIYTCHRDKNCVINKVTRNRCQYCRLQKCFEVGMSKESVRND [S12M] | -0.102 ± 0.076
16 | YKPCFVCQDKSNGYHYGVSACEGCKGFFRRSIQKNMIYTCHRDKNCVINKVTRNRCQYCRLQKCFEVGMSKESVRND [S12N] | 0.023 ± 0.084
17 | YKPCFVCQDKSPGYHYGVSACEGCKGFFRRSIQKNMIYTCHRDKNCVINKVTRNRCQYCRLQKCFEVGMSKESVRND [S12P] | -0.227 ± 0.11
18 | YKPCFVCQDKSRGYHYGVSACEGCKGFFRRSIQKNMIYTCHRDKNCVINKVTRNRCQYCRLQKCFEVGMSKESVRND [S12R] | -0.32 ± 0.05

Row | Variant | abundance fitness
19 | YKPCFVCQDKSTGYHYGVSACEGCKGFFRRSIQKNMIYTCHRDKNCVINKVTRNRCQYCRLQKCFEVGMSKESVRND [S12T] | 0.067 ± 0.058
20 | YKPCFVCQDKSVGYHYGVSACEGCKGFFRRSIQKNMIYTCHRDKNCVINKVTRNRCQYCRLQKCFEVGMSKESVRND [S12V] | 0.011 ± 0.04
21 | YKPCFVCQDKSWGYHYGVSACEGCKGFFRRSIQKNMIYTCHRDKNCVINKVTRNRCQYCRLQKCFEVGMSKESVRND [S12W] | -0.106 ± 0.057
22 | YKPCFVCQDKSYGYHYGVSACEGCKGFFRRSIQKNMIYTCHRDKNCVINKVTRNRCQYCRLQKCFEVGMSKESVRND [S12Y] | -0.364 ± 0.14
23 | YKPCFVCQDKSSAYHYGVSACEGCKGFFRRSIQKNMIYTCHRDKNCVINKVTRNRCQYCRLQKCFEVGMSKESVRND [G13A] | -0.325 ± 0.1
24 | YKPCFVCQDKSSCYHYGVSACEGCKGFFRRSIQKNMIYTCHRDKNCVINKVTRNRCQYCRLQKCFEVGMSKESVRND [G13C] | -0.334 ± 0.11
25 | YKPCFVCQDKSSDYHYGVSACEGCKGFFRRSIQKNMIYTCHRDKNCVINKVTRNRCQYCRLQKCFEVGMSKESVRND [G13D] | 0.082 ± 0.081
26 | YKPCFVCQDKSSEYHYGVSACEGCKGFFRRSIQKNMIYTCHRDKNCVINKVTRNRCQYCRLQKCFEVGMSKESVRND [G13E] | -0.068 ± 0.12
27 | YKPCFVCQDKSSFYHYGVSACEGCKGFFRRSIQKNMIYTCHRDKNCVINKVTRNRCQYCRLQKCFEVGMSKESVRND [G13F] | -0.349 ± 0.14
28 | YKPCFVCQDKSSHYHYGVSACEGCKGFFRRSIQKNMIYTCHRDKNCVINKVTRNRCQYCRLQKCFEVGMSKESVRND [G13H] | -0.265 ± 0.15
29 | YKPCFVCQDKSSIYHYGVSACEGCKGFFRRSIQKNMIYTCHRDKNCVINKVTRNRCQYCRLQKCFEVGMSKESVRND [G13I] | -0.279 ± 0.12
30 | YKPCFVCQDKSSKYHYGVSACEGCKGFFRRSIQKNMIYTCHRDKNCVINKVTRNRCQYCRLQKCFEVGMSKESVRND [G13K] | -0.292 ± 0.2
31 | YKPCFVCQDKSSLYHYGVSACEGCKGFFRRSIQKNMIYTCHRDKNCVINKVTRNRCQYCRLQKCFEVGMSKESVRND [G13L] | -0.457 ± 0.093
32 | YKPCFVCQDKSSMYHYGVSACEGCKGFFRRSIQKNMIYTCHRDKNCVINKVTRNRCQYCRLQKCFEVGMSKESVRND [G13M] | -0.067 ± 0.1
33 | YKPCFVCQDKSSNYHYGVSACEGCKGFFRRSIQKNMIYTCHRDKNCVINKVTRNRCQYCRLQKCFEVGMSKESVRND [G13N] | -0.145 ± 0.12
34 | YKPCFVCQDKSSQYHYGVSACEGCKGFFRRSIQKNMIYTCHRDKNCVINKVTRNRCQYCRLQKCFEVGMSKESVRND [G13Q] | -0.503 ± 0.2
35 | YKPCFVCQDKSSRYHYGVSACEGCKGFFRRSIQKNMIYTCHRDKNCVINKVTRNRCQYCRLQKCFEVGMSKESVRND [G13R] | -0.289 ± 0.11
36 | YKPCFVCQDKSSSYHYGVSACEGCKGFFRRSIQKNMIYTCHRDKNCVINKVTRNRCQYCRLQKCFEVGMSKESVRND [G13S] | -0.055 ± 0.059
